Values quoted from earlier work, collected in article PMC7862380.

Assays:
[1] = target: Lys63-linked di-ubiquitin (Homo sapiens) (UniProt P0CG48)
[2] = target: Met1-linked di-ubiquitin (Homo sapiens) (UniProt P0CG48)

OTULIN, sequence (Q96BN8 whole entry): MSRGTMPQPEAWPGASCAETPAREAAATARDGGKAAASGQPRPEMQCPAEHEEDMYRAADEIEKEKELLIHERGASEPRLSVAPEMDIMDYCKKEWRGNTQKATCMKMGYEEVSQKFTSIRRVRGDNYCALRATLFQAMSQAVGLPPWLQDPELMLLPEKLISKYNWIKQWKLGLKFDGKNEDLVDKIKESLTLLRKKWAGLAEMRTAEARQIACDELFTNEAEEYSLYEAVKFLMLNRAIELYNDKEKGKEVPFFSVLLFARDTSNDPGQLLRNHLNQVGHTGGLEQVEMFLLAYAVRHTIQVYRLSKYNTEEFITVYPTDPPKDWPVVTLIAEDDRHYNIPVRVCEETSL

Question: What does the source list for OTULIN (from UniProt Q96BN8)?
Answer: Kd [1]: 12 µM; Kd [2]: 0.12 µM
